Sequences and labels used below:
B1: APRPGNWIL (peptide)
peptide: APRPGNWIL
B2: LPSPAHAFRAL (peptide)
peptide: LPSPAHAFRAL
B3: IPDTIASVL (peptide)
peptide: IPDTIASVL
B4: SPSTSRTPL (peptide)
peptide: SPSTSRTPL
B5: FPRKPYEGRV (peptide)
peptide: FPRKPYEGRV
B6: LPNTGRIGQL (peptide)
peptide: LPNTGRIGQL
B7: RPAPGPAPFV (peptide)
peptide: RPAPGPAPFV
B8: RPTAASQSRAL (peptide)
peptide: RPTAASQSRAL
B9: APGGSSRSSL (peptide)
peptide: APGGSSRSSL
B10: KPYDGIPAS (peptide)
peptide: KPYDGIPAS
B11: RVMLPKAAL (peptide)
peptide: RVMLPKAAL
B12: MPKTNLSKM (peptide)
peptide: MPKTNLSKM
B13: TPELKSSIL (peptide)
peptide: TPELKSSIL
B14: SPVGVGQRL (peptide)
peptide: SPVGVGQRL
B15: QPENSLEGISL (peptide)
peptide: QPENSLEGISL
B16: LPVSPARAL (peptide)
peptide: LPVSPARAL
B17: LPWEQNEQV (peptide)
peptide: LPWEQNEQV
B18: RNRQVATAL (peptide)
peptide: RNRQVATAL
B19: IPIRVDQNGAF (peptide)
peptide: IPIRVDQNGAF
B20: VPYYPRANL (peptide)
peptide: VPYYPRANL
B21: IPETASVVAI (peptide)
peptide: IPETASVVAI
B22: FPYSGDKILV (peptide)
peptide: FPYSGDKILV
B23: SPGDKRLAAYL (peptide)
peptide: SPGDKRLAAYL
B24: HPNKIKASL (peptide)
peptide: HPNKIKASL
B25: FPNAGPRHLL (peptide)
peptide: FPNAGPRHLL
B26: KIEQIRAVL (peptide)
peptide: KIEQIRAVL
B27: MAYDRFIAI (peptide)
peptide: MAYDRFIAI
B28: SPIIHSIL (peptide)
peptide: SPIIHSIL
B29: RPGTGQGGL (peptide)
peptide: RPGTGQGGL
B30: TPRIGPKVSL (peptide)
peptide: TPRIGPKVSL
B31: VPHTGRYTCL (peptide)
peptide: VPHTGRYTCL
B32: MPVPGILL (peptide)
peptide: MPVPGILL
B33: SPRSGVLL (peptide)
peptide: SPRSGVLL
B34: TAYPSLRLL (peptide)
peptide: TAYPSLRLL
B35: SAQSLHPVL (peptide)
peptide: SAQSLHPVL
B36: HPRAPGEQQRL (peptide)
peptide: HPRAPGEQQRL
B37: VPSDITTAF (peptide)
peptide: VPSDITTAF
B38: LPLGGHKSL (peptide)
peptide: LPLGGHKSL
B39: RPLPVSPARAL (peptide)
peptide: RPLPVSPARAL
B40: VLPRAGGAFLM (peptide)
peptide: VLPRAGGAFLM
B41: LPQRPNARL (peptide)
peptide: LPQRPNARL
B42: RLAHVRARL (peptide)
peptide: RLAHVRARL
B43: NPIFGRKEL (peptide)
peptide: NPIFGRKEL
B44: RPSGTAGAAL (peptide)
peptide: RPSGTAGAAL
B45: VPRRPARAL (peptide)
peptide: VPRRPARAL
B46: VWEPQGSSRSL (peptide)
peptide: VWEPQGSSRSL
B47: RPSQLAPATL (peptide)
peptide: RPSQLAPATL
B48: SPSREASAL (peptide)
peptide: SPSREASAL
B49: AVHEIGHSL (peptide)
peptide: AVHEIGHSL

49 molecules from US20200040057A1 (IMMATICS BIOTECHNOLOGIES, published 2020) can be followed below.

The experiment addresses HLA-B*07 (human). In words: UV peptide exchange ELISA; +++ = yield >50. On the technique in general: An ELISA detects its analyte on a solid surface through an enzyme-linked reagent.
With B1, the peptide exchange yield lay in the range of 50 to 75%.
In turn, B2 returned a peptide exchange yield of 50 to 75%.
Consider B3, for which the peptide exchange yield lay within 50 to 75%.
B4 came in with a peptide exchange yield of 50 to 75%.
In the case of B5, the peptide exchange yield fell in the range of 50 to 75%.
Next, B6: 50 to 75%; B7: 50 to 75%.
For B8 the value was 50 to 75%; for B9, 50 to 75%.
Regarding B10, the peptide exchange yield lay within 50 to 75%.
Next, B11: 50 to 75%; B12: 50 to 75%.
For B13 the value was 50 to 75%.
For the molecule B14, the peptide exchange yield fell in the range of 50 to 75%.
In turn, B15 gave a peptide exchange yield of 50 to 75%.
For B16 the value was 50 to 75%.
For B17 the value was 50 to 75%.
For B18 the value was 50 to 75%; for B19, 50 to 75%.
B20 displayed a peptide exchange yield of 50 to 75%.
Next, B21: 50 to 75%; B22: 50 to 75%.
For B23 the value was 50 to 75%; for B24, 50 to 75%.
Regarding B25, the peptide exchange yield lay in the range of 50 to 75%.
B26 yielded a peptide exchange yield of 50 to 75%.
For B27 the value was 50 to 75%; for B28, 50 to 75%.
For B29 the value was 50 to 75%; for B30, 50 to 75%; for B31, 50 to 75%.
For B32 the value was 50 to 75%; for B33, 50 to 75%.
For the molecule B34, the peptide exchange yield is 50 to 75%.
B35: the peptide exchange yield lay within 50 to 75%.
For B36 the value was 50 to 75%.
Next, B37: 50 to 75%.
Next, B38: 50 to 75%; B39: 50 to 75%; B40: 50 to 75%.
In turn, B41 showed a peptide exchange yield of 50 to 75%.
Turning to B42, the peptide exchange yield lay within 50 to 75%.
For B43 the value was 50 to 75%; for B44, 50 to 75%.
B45: the peptide exchange yield was 50 to 75%.
For B46 the value was 50 to 75%; for B47, 50 to 75%; for B48, 50 to 75%.
Next, B49: 50 to 75%.
